The text below walks through data of patent US20260242735A1 (UNIVERSIT T BASEL, published 2026).

The target of one assay is human CD33 R111A (human, UniProt P20138 18-364). The experiment in a line: flow cytometry on HEK293-T, alanine scan.
The target in a further assay is human CD33 S115A (human, UniProt P20138 18-364). The experiment in a line: flow cytometry on HEK293-T, alanine scan.
In another assay the target is human CD33 M120A (human, UniProt P20138 18-364). The experiment in a line: flow cytometry on HEK293-T, alanine scan.
Sequence of human CD33 M120A (P20138 18-364 M120A limits assumed): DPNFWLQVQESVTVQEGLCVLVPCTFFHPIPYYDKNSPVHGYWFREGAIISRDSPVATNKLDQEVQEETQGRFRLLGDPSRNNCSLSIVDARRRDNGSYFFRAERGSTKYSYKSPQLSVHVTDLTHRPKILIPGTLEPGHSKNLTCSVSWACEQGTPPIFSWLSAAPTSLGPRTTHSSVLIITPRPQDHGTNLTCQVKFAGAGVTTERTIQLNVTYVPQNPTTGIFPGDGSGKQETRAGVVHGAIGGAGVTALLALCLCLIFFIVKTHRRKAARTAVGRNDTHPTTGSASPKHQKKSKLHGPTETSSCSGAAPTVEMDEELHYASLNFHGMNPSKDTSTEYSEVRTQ
For a further assay, the target named is human CD33 G123A (human, UniProt P20138 18-364). The experiment in a line: flow cytometry on HEK293-T, alanine scan.
Sequence of human CD33 G123A (P20138 18-364 G123A limits assumed): as the sequence (P20138 18-364 M120A limits assumed) above, with A103M, G106A counted along it
Another assay addresses human CD33 K126A (human, UniProt P20138 18-364). The experiment in a line: flow cytometry on HEK293-T, alanine scan.
For another assay, the target named is human CD33 K130A (human, UniProt P20138 18-364). The experiment in a line: flow cytometry on HEK293-T, alanine scan.
Sequence of human CD33 K130A (P20138 18-364 K130A limits assumed): as the sequence (P20138 18-364 M120A limits assumed) above, with A103M, K113A counted along it
A further assay deals with human CD33 D95A (human, UniProt P20138 18-364). The experiment in a line: flow cytometry on HEK293-T, alanine scan.
Sequence of human CD33 D95A (P20138 18-364 D95A limits assumed): as the sequence (P20138 18-364 M120A limits assumed) above, with D78A, A103M counted along it
A further assay deals with human CD33 R254A (human, UniProt P20138 18-364). The experiment in a line: alanine scan, flow cytometry, HEK293-T.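 Further: antibody binding to each alanine-substituted CD33 mutant expressed transiently in HEK293-T, read as fluorescence minus background, mean of duplicates, relative to wild-type CD33 set as 100%.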
Sequence of human CD33 R254A (P20138 18-364 R254A limits assumed): as the sequence (P20138 18-364 M120A limits assumed) above, with A103M, R237A counted along it
Another assay concerns the target human CD33 G256A (human, UniProt P20138 18-364). The experiment in a line: alanine scan, flow cytometry, HEK293-T.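 Further: antibody binding to each alanine-substituted CD33 mutant expressed transiently in HEK293-T, read as fluorescence minus background, mean of duplicates, relative to wild-type CD33 set as 100%.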
The next assay deals with human CD33 G263A (human, UniProt P20138 18-364). The experiment in a line: alanine scan, flow cytometry, HEK293-T.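 Further: antibody binding to each alanine-substituted CD33 mutant expressed transiently in HEK293-T, read as fluorescence minus background, mean of duplicates, relative to wild-type CD33 set as 100%.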
Sequence of human CD33 G263A (P20138 18-364 G263A limits assumed): as the sequence (P20138 18-364 M120A limits assumed) above, with A103M, G246A counted along it
In the next assay the target is human CD33 A269S (human, UniProt P20138 18-364). The experiment in a line: alanine scan, flow cytometry, HEK293-T.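 Further: antibody binding to each alanine-substituted CD33 mutant expressed transiently in HEK293-T, read as fluorescence minus background, mean of duplicates, relative to wild-type CD33 set as 100%.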
Sequence of human CD33 A269S (P20138 18-364 A269S limits assumed): as the sequence (P20138 18-364 M120A limits assumed) above, with A103M, A252S counted along it
The next assay addresses human CD33 R286A (human, UniProt P20138 18-364). The experiment in a line: alanine scan, flow cytometry, HEK293-T.
The target of another assay is human CD33 K288A (human, UniProt P20138 18-364). The experiment in a line: alanine scan, flow cytometry, HEK293-T.
Sequence of human CD33 K288A (P20138 18-364 K288A limits assumed): as the sequence (P20138 18-364 M120A limits assumed) above, with A103M, K271A counted along it
In the next assay the target is human CD33 A289S (human, UniProt P20138 18-364). The experiment in a line: alanine scan, flow cytometry, HEK293-T.
Sequence of human CD33 A289S (P20138 18-364 A289S limits assumed): as the sequence (P20138 18-364 M120A limits assumed) above, with A103M, A272S counted along it
Another assay deals with human CD33 G295A (human, UniProt P20138 18-364). The experiment in a line: alanine scan, flow cytometry, HEK293-T.
Sequence of human CD33 G295A (P20138 18-364 G295A limits assumed): as the sequence (P20138 18-364 M120A limits assumed) above, with A103M, G278A counted along it
In another assay the target is human CD33 R296A (human, UniProt P20138 18-364). The experiment in a line: alanine scan, flow cytometry, HEK293-T.
Sequence of human CD33 R296A (P20138 18-364 R296A limits assumed): as the sequence (P20138 18-364 M120A limits assumed) above, with A103M, R279A counted along it
The target in a further assay is human CD33 N297A (human, UniProt P20138 18-364). The experiment in a line: alanine scan, flow cytometry, HEK293-T.
Sequence of human CD33 N297A (P20138 18-364 N297A limits assumed): as the sequence (P20138 18-364 M120A limits assumed) above, with A103M, N280A counted along it
Another assay has as its target human CD33 P244A (human, UniProt P20138 18-364). The experiment in a line: alanine scan, flow cytometry, HEK293-T.
A further assay addresses human CD33 G247A (human, UniProt P20138 18-364). The experiment in a line: alanine scan, flow cytometry, HEK293-T.

Sequence of human CD33 K126A (P20138 18-364 K126A limits assumed): as the sequence (P20138 18-364 M120A limits assumed) above, with A103M, K109A counted along it
Sequence of human CD33 S115A (P20138 18-364 S115A limits assumed): as the sequence (P20138 18-364 M120A limits assumed) above, with S98A, A103M counted along it
Sequence of human CD33 R111A (P20138 18-364 R111A limits assumed): as the sequence (P20138 18-364 M120A limits assumed) above, with R94A, A103M counted along it
Sequence of human CD33 R286A (P20138 18-364 R286A limits assumed): as the sequence (P20138 18-364 M120A limits assumed) above, with A103M, R269A counted along it
Sequence of human CD33 G256A (P20138 18-364 G256A limits assumed): as the sequence (P20138 18-364 M120A limits assumed) above, with A103M, G239A counted along it
Sequence of human CD33 P244A (P20138 18-364 P244A limits assumed): as the sequence (P20138 18-364 M120A limits assumed) above, with A103M, P227A counted along it
Sequence of human CD33 G247A (P20138 18-364 G247A limits assumed): as the sequence (P20138 18-364 M120A limits assumed) above, with A103M, G230A counted along it

B1: Refmab #1 (antibody, V domains shown)
VH: EVQLVQSGAEVKKPGSSVKVSCKASGYTITDSNIHWVRQAPGQSLEWIGYIYPYNGGTDYNQKFKNRATLTVDNPTNTAYMELSSLRSEDTAFYYCVNGNPWLAYWGQGTLVTVSS
VL: DIQLTQSPSTLSASVGDRVTITCRASESLDNYGIRFLTWFQQKPGKAPKLLMYAASNQGSGVPSRFSGSGSGTEFTLTISSLQPDDFATYYCQQTKEVPWSFGQGTKVEVK
notes: The alanine scan used IgG or Fab; also called hP67.6
In the case of B1, the “Mean % WT Binding” value with human CD33 R111A is 100 % WT binding; with human CD33 S115A, 86.9 % WT binding; with human CD33 M120A it was 79.8 % WT binding; with human CD33 G123A, 107 % WT binding; with human CD33 K126A, 100 % WT binding; with human CD33 K130A, 106 % WT binding. For the same molecule, in the assay with human CD33 D95A, the “Mean % WT Binding” value was found to be 80.5 % WT binding.

B2: Refmab #3 (antibody, V domains shown)
VH: QVQLVQSGAEVKKPGSSVKVSCKASGYTFTDYNMHWVRQAPGQGLEWIGYIYPYNGGTGYNQKFKSKATITADESTNTAYMELSSLRSEDTAVYYCARGRPAMDYWGQGTLVTVSS
VL: DIQMTQSPSSLSASVGDRVTITCRASESVDNYGISFMNWFQQKPGKAPKLLIYAASNQGSGVPSRFSGSGSGTDFTLTISSLQPDDFATYYCQQSKEVPWTFGQGTKVEIK
notes: The alanine scan used IgG or Fab
As for B2, the “Mean % WT Binding” value in the assay with human CD33 R111A was found to be 93.4 % WT binding; with human CD33 S115A it was 77.2 % WT binding; with human CD33 G123A, 292 % WT binding; with human CD33 K126A it was 566 % WT binding; with human CD33 K130A it was 152 % WT binding; in the assay with human CD33 D95A it was 103 % WT binding.

B3: Refmab #3 (antibody, V domains shown)
VH: QVQLVQSGAEVKKPGSSVKVSCKASGYTFTDYNMHWVRQAPGQGLEWIGYIYPYNGGTGYNQKFKSKATITADESTNTAYMELSSLRSEDTAVYYCARGRPAMDYWGQGTLVTVSS
VL: DIQMTQSPSSLSASVGDRVTITCRASESVDNYGISFMNWFQQKPGKAPKLLIYAASNQGSGVPSRFSGSGSGTDFTLTISSLQPDDFATYYCQQSKEVPWTFGQGTKVEIK
notes: as for B2
As to B3, the “Mean % WT Binding” value stood at 88.4 % WT binding with human CD33 R254A; 94.9 % WT binding with human CD33 G256A; 116 % WT binding in the assay with human CD33 G263A; 97.4 % WT binding in the assay with human CD33 A269S; 92.4 % WT binding with human CD33 R286A; 107 % WT binding in the assay with human CD33 K288A. Further, the “Mean % WT Binding” value with human CD33 A289S amounted to 82.8 % WT binding; with human CD33 G295A, 95.8 % WT binding; with human CD33 R296A, 92.9 % WT binding; with human CD33 N297A, 133 % WT binding; with human CD33 P244A, 138 % WT binding; with human CD33 G247A it was 106 % WT binding.

B4: Refmab #4 (antibody, V domains shown)
VH: QVQLVQSGAEVKKPGESVKVSCKASGYTFTNYGMNWVKQAPGQGLEWMGWINTYTGEPTYADKFQGRVTMTTDTSTSTAYMEIRNLGGDDTAVYYCARWSWSDGYYVYFDYWGQGTSVTVSS
VL: DIVMTQSPDSLTVSLGERTTINCKSSQSVLDSSTNKNSLAWYQQKPGQPPKLLLSWASTRESGIPDRFSGSGSGTDFTLTIDSPQPEDSATYYCQQSAHFPITFGQGTRLEIK
notes: as for B2
For B4, the “Mean % WT Binding” value with human CD33 R111A was determined as 94.3 % WT binding; in the assay with human CD33 S115A, 36.4 % WT binding; with human CD33 M120A, 96.8 % WT binding; in the assay with human CD33 G123A, 97.9 % WT binding; with human CD33 K126A, 212 % WT binding; with human CD33 K130A, 180 % WT binding. Besides, the “Mean % WT Binding” value with human CD33 D95A is 90.9 % WT binding.

B5: Refmab #4 (antibody, V domains shown)
VH: QVQLVQSGAEVKKPGESVKVSCKASGYTFTNYGMNWVKQAPGQGLEWMGWINTYTGEPTYADKFQGRVTMTTDTSTSTAYMEIRNLGGDDTAVYYCARWSWSDGYYVYFDYWGQGTSVTVSS
VL: DIVMTQSPDSLTVSLGERTTINCKSSQSVLDSSTNKNSLAWYQQKPGQPPKLLLSWASTRESGIPDRFSGSGSGTDFTLTIDSPQPEDSATYYCQQSAHFPITFGQGTRLEIK
notes: as for B2
As to B5, the “Mean % WT Binding” value with human CD33 R254A was determined as 101 % WT binding; in the assay with human CD33 G256A it was 104 % WT binding; in the assay with human CD33 G263A it was 99.9 % WT binding; with human CD33 A269S, 83.6 % WT binding; with human CD33 R286A, 101 % WT binding; with human CD33 K288A, 100 % WT binding. Besides, the “Mean % WT Binding” value with human CD33 A289S is 95 % WT binding; with human CD33 G295A it was 107 % WT binding; in the assay with human CD33 R296A, 106 % WT binding; with human CD33 N297A, 88.9 % WT binding; with human CD33 P244A, 100 % WT binding; with human CD33 G247A, 113 % WT binding.

B6: Refmab #2 (antibody, V domains shown)
VH: QVQLVQSGAEVKKPGSSVKVSCKASGGTFSDYAISWVRQAPGQGLEWMGRIIPILGVADYAQKFQGRVTITADKSTRTAYMELSSLRSEDTAVYYCARNWADAFDIWGQGTMVTVSS
VL: DIQLTQSPSSLSASVGDRVTITCRASQGISSVLAWYQQKPGKAPKLLIYDASSLESGVPSRFSGSGSGTDFTLTISSLQPEDFATYYCQQFDSSITFGQGTKLEIK
notes: as for B2
Take B6: the “Mean % WT Binding” value stood at 108 % WT binding in the assay with human CD33 R111A; 93.2 % WT binding with human CD33 S115A; 70.7 % WT binding with human CD33 M120A; 82 % WT binding with human CD33 G123A; 121 % WT binding with human CD33 K126A; 123 % WT binding with human CD33 K130A. Further, the “Mean % WT Binding” value in the assay with human CD33 D95A came to 110 % WT binding.
